Data on two molecules can be found in article PMC13722417 (2026).

B1: TIE1 21-760 (protein)
chain: AAVDLTLLANLRLTDPQRFFLTCVSGEAGAGRGSDAWGPPLLLEKDDRIVRTPPGPPLRLARNGSHQVTLRGFSKPSDLVGVFSCVGGAGARRTRVIYVHNSPGAHLLPDKVTHTVNKGDTAVLSARVHKEKQTDVIWKSNGSYFYTLDWHEAQDGRFLLQLPNVQPPSSGIYSATYLEASPLGSAFFRLIVRGCGAGRWGPGCTKECPGCLHGGVCHDHDGECVCPPGFTGTRCEQACREGRFGQSCQEQCPGISGCRGLTFCLPDPYGCSCGSGWRGSQCQEACAPGHFGADCRLQCQCQNGGTCDRFSGCVCPSGWHGVHCEKSDRIPQILNMASELEFNLETMPRINCAAAGNPFPVRGSIELRKPDGTVLLSTKAIVEPEKTTAEFEVPRLVLADSGFWECRVSTSGGQDSRRFKVNVKVPPVPLAAPRLLTKQSRQLVVSPLVSFSGDGPISTVRLHYRPQDSTMDWSTIVVDPSENVTLMNLRPKTGYSVRVQLSRPGEGGEGAWGPPTLMTTDCPEPLLQPWLEGWHVEGTDRLRVSWSLPLVPGPLVGDGFLLRLWDGTRGQERRENVSSPQARTALLTGLTPGTHYQLDVQLYHCTLLGPASPPAHVLLPPSGPPAPRHLHAQALSDSEIQLTWKHPEALPGPISKYVVEVQVAGGAGDPLWIDVDRPEETSTIIRGLNASTRYLFRMRASIQGLGDWSNTVEESTLGNGLQAEGPVQESRAAEEGLDQQ

“And” between values parts separate entries of the source, which are not always exact repeats. Equal entries are not always repeated.

Assay [1] concerns the target SVEP1 919-3571 (Homo sapiens, UniProt Q4LDE5). The assay is described as follows: ELISA. For orientation: An ELISA detects its analyte on a solid surface through an enzyme-linked reagent.
The target of assay [2] is SVEP1 919-3571 (Homo sapiens, UniProt Q4LDE5, ANG1 present). Kind of assay: ELISA.
For assay [3], the target named is SVEP1 919-3571 (Homo sapiens, UniProt Q4LDE5, ANG2 present). Kind of assay: ELISA.
For the assay “TIE1 21-760”, the target named is B1. Kind of assay: SPR. On the technique in general: SPR reads the build-up and loss of mass on a sensor chip optically.

Turning to B1, the Kd with SVEP1 919-3571 [1] was 189 nM and 147 nM; in the assay with SVEP1 919-3571 [2] it was 82.4 nM; in the assay with SVEP1 919-3571 [3], 55.6 nM.

B2: SVEP1 2261-2890 (protein)
chain: PLDCGKPPPIQNGFMKGENFEVGSKVQFFCNEGYELVGDSSWTCQKSGKWNKKSNPKCMPAKCPEPPLLENQLVLKELTTEVGVVTFSCKEGHVLQGPSVLKCLPSQQWNDSFPVCKIVLCTPPPLISFGVPIPSSALHFGSTVKYSCVGGFFLRGNSTTLCQPDGTWSSPLPECVPVECPQPEEIPNGIIDVQGLAYLSTALYTCKPGFELVGNTTTLCGENGHWLGGKPTCKAIECLKPKEILNGKFSYTDLHYGQTVTYSCNRGFRLEGPSALTCLETGDWDVDAPSCNAIHCDSPQPIENGFVEGADYSYGAIIIYSCFPGFQVAGHAMQTCEESGWSSSIPTCMPIDCGLPPHIDFGDCTKLKDDQGYFEQEDDMMEVPYVTPHPPYHLGAVAKTWENTKESPATHSSNFLYGTMVSYTCNPGYELLGNPVLICQEDGTWNGSAPSCISIECDLPTAPENGFLRFTETSMGSAVQYSCKPGHILAGSDLRLCLENRKWSGASPRCEAISCKKPNPVMNGSIKGSNYTYLSTLYYECDPGYVLNGTERRTCQDDKNWDEDEPICIPVDCSSPPVSANGQVRGDEYTFQKEIEYTCNEGFLLEGARSRVCLANGSWSGATPDCVPVR
In turn, B2 returned a Kd with TIE1 21-760 of 62.5 nM.

What is called Kd is the concentration at which binding is half-saturated.
